Measured values taken from article doi:10.1101/511758 (bioRxiv, 2019).
Read-outs that look alike come from different tables or passages of the source.

Tests used:
N-HelQ = target: T1, N-HelQ (Homo sapiens, UniProt Q8TDG4 1-417); assay: EMSA
T1 sequence: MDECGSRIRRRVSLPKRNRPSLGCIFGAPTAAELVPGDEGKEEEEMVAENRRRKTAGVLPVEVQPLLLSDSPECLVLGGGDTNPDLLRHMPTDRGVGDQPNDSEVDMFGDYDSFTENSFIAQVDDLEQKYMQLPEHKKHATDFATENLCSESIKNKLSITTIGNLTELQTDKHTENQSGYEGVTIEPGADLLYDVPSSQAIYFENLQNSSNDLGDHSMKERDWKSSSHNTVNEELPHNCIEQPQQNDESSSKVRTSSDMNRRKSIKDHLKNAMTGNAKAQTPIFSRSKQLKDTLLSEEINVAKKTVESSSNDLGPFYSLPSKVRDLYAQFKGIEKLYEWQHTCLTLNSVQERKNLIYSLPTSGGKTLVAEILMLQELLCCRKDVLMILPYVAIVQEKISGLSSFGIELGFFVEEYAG

SSB = SSB (Escherichia coli, UniProt P0AGE0 1-178); assay: EMSA
SSB, sequence (P0AGE0 whole entry): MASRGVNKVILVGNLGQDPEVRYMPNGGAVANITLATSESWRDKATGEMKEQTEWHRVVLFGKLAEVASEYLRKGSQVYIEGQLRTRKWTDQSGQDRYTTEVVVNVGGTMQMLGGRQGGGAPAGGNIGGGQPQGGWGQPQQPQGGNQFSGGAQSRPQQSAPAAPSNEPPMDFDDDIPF

HelQ;RPA = HelQ;RPA (Homo sapiens;Homo sapiens, UniProt Q8TDG4;P27694;P15927;P35244 ;1-616;1-270;1-121, |); assay: EMSA
HelQ;RPA, sequence (P27694 whole entry, chain 2 of 3): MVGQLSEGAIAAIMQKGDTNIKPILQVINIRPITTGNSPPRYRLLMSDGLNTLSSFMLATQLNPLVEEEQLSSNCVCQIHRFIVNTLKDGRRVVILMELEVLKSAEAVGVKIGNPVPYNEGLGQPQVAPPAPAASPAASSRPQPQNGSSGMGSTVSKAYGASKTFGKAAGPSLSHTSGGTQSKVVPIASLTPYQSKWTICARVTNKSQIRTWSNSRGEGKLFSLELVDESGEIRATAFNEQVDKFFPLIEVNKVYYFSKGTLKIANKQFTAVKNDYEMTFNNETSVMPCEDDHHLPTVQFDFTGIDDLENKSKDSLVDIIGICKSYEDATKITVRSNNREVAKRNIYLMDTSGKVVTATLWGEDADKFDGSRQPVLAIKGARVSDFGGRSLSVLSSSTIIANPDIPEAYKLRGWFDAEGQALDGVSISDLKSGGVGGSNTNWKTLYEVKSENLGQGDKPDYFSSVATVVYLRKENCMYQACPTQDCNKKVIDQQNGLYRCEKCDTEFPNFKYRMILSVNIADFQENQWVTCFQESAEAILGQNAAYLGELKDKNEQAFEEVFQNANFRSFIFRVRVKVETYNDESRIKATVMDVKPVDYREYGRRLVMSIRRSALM
HelQ;RPA, sequence (P15927 whole entry, chain 3 of 3): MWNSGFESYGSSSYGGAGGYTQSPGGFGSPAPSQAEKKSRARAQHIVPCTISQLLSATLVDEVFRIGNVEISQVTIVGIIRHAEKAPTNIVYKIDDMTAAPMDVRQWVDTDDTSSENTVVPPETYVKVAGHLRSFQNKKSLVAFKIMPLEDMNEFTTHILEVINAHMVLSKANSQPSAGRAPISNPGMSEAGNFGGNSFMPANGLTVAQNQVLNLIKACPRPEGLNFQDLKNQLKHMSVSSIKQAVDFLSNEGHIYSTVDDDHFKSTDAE
HelQ;RPA, sequence (P35244 whole entry, chain 4 of 3): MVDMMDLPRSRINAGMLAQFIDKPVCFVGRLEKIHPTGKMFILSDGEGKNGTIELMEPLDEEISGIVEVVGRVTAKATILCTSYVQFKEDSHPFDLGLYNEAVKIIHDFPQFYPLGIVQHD

HelQ [1] = target: T2, HelQ (Homo sapiens, UniProt Q8TDG4); assay: EMSA
T2 sequence: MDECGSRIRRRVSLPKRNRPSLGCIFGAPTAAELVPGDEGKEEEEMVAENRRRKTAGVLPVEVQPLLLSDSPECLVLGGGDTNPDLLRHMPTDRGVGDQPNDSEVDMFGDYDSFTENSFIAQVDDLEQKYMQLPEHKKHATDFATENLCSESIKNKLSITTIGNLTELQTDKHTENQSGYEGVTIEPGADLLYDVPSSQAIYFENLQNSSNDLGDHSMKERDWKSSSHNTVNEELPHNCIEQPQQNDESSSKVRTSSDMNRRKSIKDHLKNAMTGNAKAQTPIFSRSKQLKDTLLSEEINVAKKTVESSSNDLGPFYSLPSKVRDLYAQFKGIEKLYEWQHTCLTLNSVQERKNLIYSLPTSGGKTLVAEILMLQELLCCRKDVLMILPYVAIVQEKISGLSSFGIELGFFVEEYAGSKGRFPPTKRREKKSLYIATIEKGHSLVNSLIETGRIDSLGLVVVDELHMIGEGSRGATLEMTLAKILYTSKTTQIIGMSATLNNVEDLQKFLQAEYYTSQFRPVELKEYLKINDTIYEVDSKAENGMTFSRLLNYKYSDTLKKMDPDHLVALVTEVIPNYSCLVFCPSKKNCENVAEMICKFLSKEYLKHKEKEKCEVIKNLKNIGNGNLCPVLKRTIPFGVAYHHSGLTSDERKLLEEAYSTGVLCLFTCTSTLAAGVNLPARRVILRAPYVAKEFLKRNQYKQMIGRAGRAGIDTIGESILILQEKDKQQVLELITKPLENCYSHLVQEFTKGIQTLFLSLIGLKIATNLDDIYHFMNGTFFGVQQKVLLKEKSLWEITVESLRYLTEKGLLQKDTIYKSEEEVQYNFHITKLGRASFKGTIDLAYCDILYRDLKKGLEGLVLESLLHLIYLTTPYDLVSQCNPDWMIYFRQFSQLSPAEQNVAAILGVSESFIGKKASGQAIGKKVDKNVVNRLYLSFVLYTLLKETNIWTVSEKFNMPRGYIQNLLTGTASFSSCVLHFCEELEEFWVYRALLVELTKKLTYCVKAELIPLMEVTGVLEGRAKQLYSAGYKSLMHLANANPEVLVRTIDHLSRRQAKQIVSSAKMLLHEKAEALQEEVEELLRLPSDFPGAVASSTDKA

N-HelQ;RPA = N-HelQ;RPA (Homo sapiens;Homo sapiens, UniProt Q8TDG4;P27694;P15927;P35244 1-417;1-616;1-270;1-121, |); assay: EMSA
N-HelQ;RPA, sequence (P27694 whole entry, chain 2 of 3): as the sequence (P27694 whole entry, chain 2 of 3) above
N-HelQ;RPA, sequence (P15927 whole entry, chain 3 of 3): as the sequence (P15927 whole entry, chain 3 of 3) above
N-HelQ;RPA, sequence (P35244 whole entry, chain 4 of 3): as the sequence (P35244 whole entry, chain 4 of 3) above

HelQ [2] = target: T2, HelQ; assay: EMSA; remark: listed apart in the source
SEC-MALS = target: the molecule itself; assay: SEC-MALS

B1: Fork-A (mixed)
DNA 1: GTCGGATCCTCTAGACAGCTCCATGATCACTGGCACTGGTAGAATTCGGC
DNA 2: CAACGTCATAGACGATTACATTGCTACATGGAGCTCTCTAGAGGATCCGA
binding result (N-HelQ): no binding | binding result (SSB): binds | binding result (HelQ;RPA): binds | binding result (HelQ [1]): binds | binding result (N-HelQ;RPA): binds

B2: Fork-AP (mixed)
DNA 1: GTCGGATCCTCTAGACAGCTCCATGATCACTGGCACTGGTAGAATTCGGC
DNA 2: CAACGTCATAGACGATTACATTGCTACATGGAGCTCTCTAGAGGATCCGA
modifications: single abasic site in the 3'-5' tracking strand (position marked only in Fig S6)
binding result (HelQ [2]): binds

B3: Fork-S (mixed)
DNA 1: GTCGGATCCTCTAGACAGCTCCATGATCACTGGCACTGGTAGAATTCGGC
DNA 2: CAACGTCATAGACGATTACATTGCTACATGGAGCTCTCTAGAGGATCCGA
modifications: single phosphorothioate linkage in the 3'-5' tracking strand (position marked only in Fig S6)
binding result (HelQ [2]): binds

B4: human HelQ helicase (full-length HelQ) (enzyme)
chain: MDECGSRIRRRVSLPKRNRPSLGCIFGAPTAAELVPGDEGKEEEEMVAENRRRKTAGVLPVEVQPLLLSDSPECLVLGGGDTNPDLLRHMPTDRGVGDQPNDSEVDMFGDYDSFTENSFIAQVDDLEQKYMQLPEHKKHATDFATENLCSESIKNKLSITTIGNLTELQTDKHTENQSGYEGVTIEPGADLLYDVPSSQAIYFENLQNSSNDLGDHSMKERDWKSSSHNTVNEELPHNCIEQPQQNDESSSKVRTSSDMNRRKSIKDHLKNAMTGNAKAQTPIFSRSKQLKDTLLSEEINVAKKTVESSSNDLGPFYSLPSKVRDLYAQFKGIEKLYEWQHTCLTLNSVQERKNLIYSLPTSGGKTLVAEILMLQELLCCRKDVLMILPYVAIVQEKISGLSSFGIELGFFVEEYAGSKGRFPPTKRREKKSLYIATIEKGHSLVNSLIETGRIDSLGLVVVDELHMIGEGSRGATLEMTLAKILYTSKTTQIIGMSATLNNVEDLQKFLQAEYYTSQFRPVELKEYLKINDTIYEVDSKAENGMTFSRLLNYKYSDTLKKMDPDHLVALVTEVIPNYSCLVFCPSKKNCENVAEMICKFLSKEYLKHKEKEKCEVIKNLKNIGNGNLCPVLKRTIPFGVAYHHSGLTSDERKLLEEAYSTGVLCLFTCTSTLAAGVNLPARRVILRAPYVAKEFLKRNQYKQMIGRAGRAGIDTIGESILILQEKDKQQVLELITKPLENCYSHLVQEFTKGIQTLFLSLIGLKIATNLDDIYHFMNGTFFGVQQKVLLKEKSLWEITVESLRYLTEKGLLQKDTIYKSEEEVQYNFHITKLGRASFKGTIDLAYCDILYRDLKKGLEGLVLESLLHLIYLTTPYDLVSQCNPDWMIYFRQFSQLSPAEQNVAAILGVSESFIGKKASGQAIGKKVDKNVVNRLYLSFVLYTLLKETNIWTVSEKFNMPRGYIQNLLTGTASFSSCVLHFCEELEEFWVYRALLVELTKKLTYCVKAELIPLMEVTGVLEGRAKQLYSAGYKSLMHLANANPEVLVRTIDHLSRRQAKQIVSSAKMLLHEKAEALQEEVEELLRLPSDFPGAVASSTDKA
stoichiometry N (SEC-MALS): 2

B5: Fork-Me (mixed)
DNA 1: GTCGGATCCTCTAGACAGCATCCATGATCACTGGCACTGGTAGAATTCGGC
DNA 2: CAACGTCATAGACGATTACATTGCTACATGGATGCTGTCTAGAGGATCCGA
modifications: single methylphosphonate linkage in the 3'-5' tracking strand (position marked only in Fig S6)
binding result (HelQ [2]): binds
